T1: CD19 (Biacore ligand coupled to the chip) (UniProt P15391 20-291, limits assumed)
T1 construct: also called 配体:CD19
T1 sequence (looked up): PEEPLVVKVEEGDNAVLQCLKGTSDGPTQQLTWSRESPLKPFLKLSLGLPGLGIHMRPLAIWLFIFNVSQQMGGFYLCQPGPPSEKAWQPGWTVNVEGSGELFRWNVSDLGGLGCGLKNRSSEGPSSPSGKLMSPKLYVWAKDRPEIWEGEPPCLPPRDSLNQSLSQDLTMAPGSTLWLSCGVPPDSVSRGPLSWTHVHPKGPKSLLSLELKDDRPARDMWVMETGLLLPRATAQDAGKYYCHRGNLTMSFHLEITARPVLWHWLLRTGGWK


Biological target: T1, CD19 (Biacore ligand coupled to the …)
Experiment: Biacore SPR, CD19 coupled to chip, antibody as analyte 3.125-100 ug/ml

Kd [nM]	koff [s⁻¹]	kon [M⁻¹ s⁻¹]	Binder
15.9	0.00441	278000	HM1711091-T1L1H4 (antibody, V domains shown, Full antibody (全抗) used in the Biacore assay; also called 人源化单抗T1L1H4; 人源化T1L1H4抗体) VH: QVQLQESGPGLVAPSETLSLTCTVSGVSLPDYGVSWIRQPPRKGLEWIGVIWGSETTYYNSALKSRVTISVDTSKNQFSLKLSSVTAADTAVYYCAKHYYYGGSYAMDYWGQGTLVTVSS VL: DIQMTQSPSSLSASVGDRVTITCRASQDISKYLNWYQQKPGKAPKLLIYHTSRLHSGVPSRFSGSGSGTDFTFTISSLQPEDIATYYCQQGNTLPYTFGGGTKVEI
28.4	0.0028	98600	HM1711091-T4L2H2 (antibody, V domains shown, Full antibody (全抗) used in the Biacore assay; also called 人源化单抗T4L2H2; 人源化T4L2H2抗体) VH: QVTLRESGPALVKPTQTLTLTCTFSGVSLPDYGVSWIRQPPGKALEWLAVIWGSETTYYNSALKSRLTISKDTSKNQVVLTMTNMDPVDTATYYCAKHYYYGGSYAMDYWGQGTTVTVSS VL: EIVLTQSPATLSLSPGERATLSCRASQDISKYLNWYQQKPGQAPRLLIYHTSRLHSGIPDRFSGSGSGTDFTLTISRLEPEDIAVYYCQQGNTLPYTFGQGTKLEI

From patent CN109879966A (PERSONGEN BIOMEDICINE SUZHOU CO LTD, dated 2019)
